US12559545

B1: HENV-137 (antibody, V domains shown)
VH: EVQLVESGGGLVQPRGSLRLSCAASGFTFSGYWMSWVRQAPGKGLEWVAKIKKDGSEKTYVDSVKGRFTISRDNAKDSLYLQMNSLRAEDTAVYYCARERLLVPAAIVGLDYYYAMDVWGQGTTVTVSS
VL: DIQMTQSPSSLSASVGDRVTITCRASQNMSTYLNWYQQKPGKAPKFLIYGASRLQNGVPSRFSGGGSGTDFTLTISSLQPEDFATYYCQQSYNIPITFGQGTRLEIK
B2: HENV-150 (antibody, V domains shown)
VH: EVQLLESGGGLVQPGGSLRLSCAASGFTFSSSAMSWVRQTPGKGLEWVSTISGSGANTYYAASVKGRFPISRDNSKNTLFLQMNSLRAEDTAVYYCAKVSTVTFGGHVPRGSYFDYWGQGTQVTVSS
VL: SYVLTQPPSVSVAPGQTARIPCGGNNIGSKSVHWYQQKPGQAPVLVVYDENDRPSGIPERFSASKSGNTATLTISRVEAGDEADYYCQVWDSRSDHYVFGTGTKVTVL
B3: HENV-100 (antibody, V domains shown)
VH: QVQLVQSGAEVKKPGASVKVSCKASGYTFTSYYINWVRQAPGQGLEWVGTINPSGGSTTYAQKFQGRVTVTRDTSTSTVYMDLSGLRSGDTAVYYCARDRKGLAATPVYSDYYYGMDVWGQGTTVTVSS
VL: EIVLTQSPATLSLSPGERATLSCRASQSVSSFLAWYQQKPGQAPRLLISDASKRATGIPARFSGSGSGTDFSLTISSLEAEDFAVYYCQQSTNWRITFGQGTRLELK
B4: HENV-98 (antibody, V domains shown)
VH: AVQLVESGGGLVQPGGSLRLSCEASGFTFSGYWMSWVRQAPGKGLEWVANIKGDGSEKYYVDSVKGRFTIFRDNAKTSLYLQVNSLRAEDTAVYYCARERHFLAARPGYYIYSGLDVWGPGTTVTVSS
VL: DIQMTQSPSSLSASVGDRVTITCRASQSIDNYLNWYQQKPGKVPKLLIYAASNLQSGVPSKFSGGGSGTDFTLTISSLQPDDFATYYCQQSFGTPRTFGQGTRVEIK
B5: HENV-141 (antibody, V domains shown)
VH: QVQLVQSGAEVKKPGSSVKVSCKASGGTFSSYTISWVRQAPGQGLEWMGRIIPISGITNYAQKFQGRVTITADKSTSTAYMELSSLRSEDTAVYYCAKDCYYGSGTYYGCRADYQWHHTMDVWGQGTTVTVSS
VL: DIQMTQSPSSLSASVGDRVTITCRASQGIRNDLGWFQQKPGKAPKRLIYAASSLQSGVPSRFSGSGSGTEFTLTISSLQPEDFATYFCLQHNTYPLTFGQGTKVEIK
B6: HENV-226 (antibody, V domains shown)
VH: EERLVQSGGGLAQPGQSLRLSCAGFGFTFTRYEMNWVRQAPGKGLEWIAHISTRGDTISYADSVKGRATISRDDTNNSLDLQMDSLRAEDTAIYFCARDRGSLSTRPPDSYHYYYHGMDVWGQGTTVIVSS
VL: EIVLTQSPATLSLSPGERATLSCRASQSIDTYLAWYQQKPGQAPRLLIYDASNRATGIPARFSGSGSGTDFSLTISSLEPDDFAVYYCQQRSNRPPRYTFGLGTRLEIK
B7: HENV-99 (antibody, V domains shown)
VH: QVLLVQSGAEVRKPGASVKVSCRASGYTFTDYYMHWVRQAPGQGLEWMGWINPNSGATKYAQKFQGRVTLTRDTSINTAYMELSGLRSVDTAVFYCASVPPSGFFYWGSDYWGQGTLVTVSS
VL: DVVLTQSPLSLPVTLGQPASISCRSSQSLVYSDGTTYLNWFQQRPGQSPRRLIYKVSYRDSGVPDRFSGSGSGTDFTLEISRVEAEDVGIYYCMHGTHWETWTFGQGTKVEIK
B8: HENV-117 (antibody, V domains shown)
VH: QVQLQQWGAGLLKPSETLSLTCDLSGGSFTNYYWTWIRHLPGKGLEWLGEINHSGRTNYSPSLKSRVTISVDTSKNQFSLRLSSVTAADTAVYYCARDIRKLAPKPHSYDLYYGMDVWGQGTTVTVSS
VL: EIVLTQSPGTLSLSPGERATLSCRASQSVGSNYLTWYQQKPGQPPRLLIYGASNRAAGIPDRFSGSGSGTDFTLTISRLEPEDFAVYYCQQYETSSRTFGQGTKVDIR
B9: HENV-83 (antibody, V domains shown)
VH: QVQLVESGGGVVQPGGSLRLSCAASGFTFRSYSMNWVRQAPGKGPEWMAVISYDGSNKYYTDSVKGRFTISRDNSKNTLNLQMNSLTSEDTAIYYCARFRGGGRIAARPDDYGMDVWGQGTTVTVST
VL: DIQMTQSPSSLSASVGDRVTITCRASESVITYLNWYQQKPGKAPKLLIYGASTLESGVPSRFSGSGSGTVFTLTISSLQPEDIATYYCQQSYNMSPYTFGQGTKLEIK
B10: HENV-58 (antibody, V domains shown)
VH: QVQLVQSGAEVKKPGSSVKVSCKASGGTFSNYVISWVRQAPGQGFEWMGRIIPMIGISNYAQKFQDRVTITADKDESTTTAYMELRGLRSEDTAMYYCASSTVTEVGAWGQGTLVTVSS
VL: AIQLTQSPSSLSASIGDRVTITCRASQGISSALAWFQQKPGKPPILLIYDASSLESGVPARFSGSGSGTDFTLTISSLQPEDFATYYCQQFYNHPLTFGPGTKVDIK
B11: HENV-103 (antibody, V domains shown)
VH: QVQLQGSGPGLVKPSQTLSLTCSVSGGSVSRSGYYWGWIRQHPGKGLECIGYIYYSGITYYNPSLSGRLTISVDTSKNQFSLELSSVTAADTAVYYCARVWLGGGVFDFWGQGSLVTVSS
VL: EIVMTQSPATLSVSPGEGATLSCRASQSVSSNLAWYQQKPGQAPRLLIYDASTRATGIPARFSGSGSGTEFTLTISSLQSEDFAVYYCQQYNDWRTFGRGTKVEMR
B12: HENV-122 (antibody, V domains shown)
VH: EVQLLESGGGLVQPGGSLRLSCAASGFTFSTNAMSWVRQAPGKGLEWVSTVSGSGAHPNYGDSVKGRFTISRVNSKNTLFLQMSSLRAEDTAIYYCARVSTVTVGGHIPRGYYFDYWGQGTLVTVSS
VL: EILLTQSPGTLSLSPGERATLSCRASQSASSSYLAWYQQKPGQAPRLLIYGASTRATGIPDRFSGSGSGTEFTLTISRLESEDFAVYYCHHYGSSRTFGQGTKVEVK
B13: HENV-184 (antibody, V domains shown)
VH: QVQLVQSGTEVKNPGSSVKVSCKASGGTFSGFGISWVRQAPGQGLEWMGGVLPIFGSPNYAQKFQGRVTITADESTGTAYMDLSSLRSDDTAMYYCARDQSGGFFDYWGQGTLVIVSS
VL: EIVLTQSPATLSLSPGERATLSCRASQSVSSNLAWYQQKPGQAPRLLIYDASDRATGVPARFSGSGSGTDFTLTISSLEPEDFALYYCQQRYNWRVTFGQGTRLEIK
B14: HENV-242 (antibody, V domains shown)
VH: QVQLVQSGAEVKKPGSSVTVSCKTSGGTFSGYAVSWVRQAPGQGLEWMGRIVPQFNIPNYAQKFQDRVTITADESTGTSYMELSSLRSDDTAVFYCARENIQTIFGVVAMMGGGGYFDSWGQGTLVTVSS
VL: DIQMTQSPSSLSASVGDRVTITCQANQDINTYLNWYLQKPGKAPQLLVFDASNLVTGVPSRFSGGGSRTDFTLTIDSLQPEDIGTYYCQQYDHLPRRTFTFGPGTKVDLK
B15: HENV-188 (antibody, V domains shown)
VH: QVQVVESGGGVVHPGRSLRLSCAGSGFIFNNYAFHWVRQAPGGGLEWMAYISYDGRYKYYAASVRGRFTISRDDSKNTLYLQMSSLRTEDTALYYCAISDYAEPLDNWGQGTLVTVSS
VL: QIVLTQSPATLSLSPGDRATLSCRASQSVSSNVAWYQQKPGQAPRLLIYNVSNRATGIPARFSGSGSGTDFTLTISSLEPEDFAVYYCHQRTNWPLTFGGGTKVEIK
B16: HENV-142 (antibody, V domains shown)
VH: QVRLQESGPRLVKPSQTLSLTCTVSGGSISSRDYYWSWIRQHPGKGLEWIGYIYYSGTTYYNPSLESRVTLSLDTSKNQFSLDLTSVTAADTAVYHCARVWLGGGVFDFWGQGTLVTVSA
VL: EIVMTQSPDTLSVSPGERATLSCRASHSVTTNLAWYQQRPGQAPRLLIFDASTRATGIPARFSGSGSGTEFTLTIGSLQSEDFAVYYCQQYNDGRTFGQGTKVEIK

Biological target: NiVB-G (Nipah virus, strain Bangladesh)

Binder | EC50 [nM]
B1 | 0.84
B2 | 0.332
B3 | 0.514
B4 | 0.58
B5 | 0.778
B6 | 0.361
B7 | 1.16
B8 | 1.2
B9 | 2.79
B10 | 1.44
B11 | 1.34
B12 | 0.382
B13 | 2.32
B14 | 7.67
B15 | 1.26
B16 | 13
